Source: the supplement of paper PMC10567573

B1: FUNDC2 (parent)
chain: YIKVDWQRVEKDMKKAKEQLKIRK
B2: KCNA1 (parent)
chain: LKASMRELGLLIFFLFIGVILFSS

Variants of: B1
Experiment: protein stability index of a GFP-peptide fusion (GPS, HEK-293T) (PSI 1-6); higher = more stable
Settings: c terminus: a fixed tail appended
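Note: lentivirally expressed fusions sorted by FACS into six bins by GFP to DsRed ratio, PSI derived from sequencing read proportions per bin multiplied by bin number.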

Protein stability index: each site, then its substitutions
I2: R 2.53
M13: L 1.63 | Q 1.82 | C 1.73
V4: D 1.99 | C 1.56 | K 1.92 | G 2.36
R8: A 2.35
K17: A 1.64
D5: K 2.1 | H 1.64
V9: Y 1.67 | N 2.37 | I 2.28 | L 2.04
K11: G 1.2 | H 1.95 | P 2.5 | V 2.16
L20: R 1.6
Y1: W 1.99 | D 4.17 | M 2.63
K15: V 2.39
R23: F 1.57
A16: Q 3 | G 1.89 | V 1.38
K21: S 2.22 | C 2.06
D12: Q 2.63 | T 1.74 | M 2.97
K24: Y 1.38 | A 2.81 | E 2.03 | V 2.61 | M 1.31
E10: L 1.65 | G 1.09 | H 2.58 | W 1.56
K3: P 2.07 | I 1.73
Q7: F 2.84
I22: A 1.21 | Q 2.51 | C 1.47 | F 2.12
Q19: M 2.57 | R 1.33
K14: S 2.03 | Q 1.72 | Y 4.38
E18: V 1.69

Variants of: B2
Experiment: as above
Settings: c terminus: a fixed tail appended

Protein stability index, by site and new letter:
S24: N 2.83 | I 1.23 | M 2.42 | Q 2.11 | E 2.02 | Y 2.06 | A 2.04 | L 1.47 | T 2 | W 1.84 | F 2.02 | D 2 | P 3.1 | V 1.85 | C 1.19 | H 2 | K 3.45
I17: T 2.48 | A 2.83 | R 2.71 | V 2.74 | W 3.85 | Y 2.24 | D 2.29 | Q 2.82 | G 2.88 | S 2.3 | H 2.85 | F 2.79 | N 4.03 | C 2.56 | M 3.35 | P 2.77 | E 1.91 | L 1.95 | K 2.83
F14: I 2.74 | M 2.48 | Y 3.01 | L 2.98 | W 3.78 | K 2.65 | D 2.93 | V 2.82 | E 2.74 | G 3.88 | C 1.95 | T 2.79 | N 2.85 | A 4.15 | H 3.41 | R 2.41 | S 3.66 | P 4.04
L15: K 2.54 | R 2.01 | W 2.7 | M 1.7 | C 2.37 | N 3.33 | I 1.55 | F 1.79 | S 2.67 | G 2.53 | P 2.29 | T 3.59 | Y 2.55 | A 2.44 | H 2.11
F22: L 2.25 | T 3.72 | A 2.33 | Y 1.93 | R 2.24 | W 2.75 | I 2.43 | K 2.81 | V 1.8 | D 2.83 | S 2.95 | H 3.76 | N 3.37 | M 2.98 | P 2.64 | Q 3.69 | G 1.81 | E 2.63
I20: V 3.45 | D 3.22 | K 3.18 | E 2.38 | Q 2.9 | F 2.32 | M 3.52 | L 1.96 | Y 2.65 | T 2.4 | S 2.1 | W 2.02 | A 3.3 | C 2.75
G18: M 2.2 | N 3.02 | D 1.87 | L 1.82 | Q 2.75 | V 3.15 | Y 3.18 | K 2.44 | I 4.5 | S 3.74 | C 3.63 | T 3.2 | W 2.21 | F 3.9 | A 1.77 | P 1.86
L11: F 1.74 | R 3.65 | K 3.54 | W 2.73 | C 4.25 | V 1.61 | A 3.12 | I 2.49 | G 3.63 | E 2.36 | D 3.53 | T 4.58 | H 2.95 | Y 3.48 | P 1.89 | M 1.73
I12: Y 3.01 | S 1.31 | L 2.86 | V 1.35 | Q 2.17 | F 2.38 | M 2.02 | K 2.8 | D 2.94 | G 3.16 | H 3.35 | E 3.27 | A 1.87 | P 1.95 | N 3.05 | W 3.17 | T 4.06 | R 4.06 | C 2.52
L8: W 2.85 | S 2.08 | V 2.42 | T 2.48 | Y 2.58
S23: T 1.44 | A 2.19 | C 1.67 | K 3.15 | P 2.42 | M 2.35 | I 1.85 | V 2 | F 2.15 | D 2.75 | N 2.41 | Y 2.2 | H 2.15 | G 2.03 | R 3.62 | Q 2.13 | L 2.19 | W 2.38
G9: M 2.37 | R 2.48 | Q 4.69 | V 1.71 | A 1.75 | D 3.82 | I 2.18 | E 4.03 | L 1.83 | C 1.29 | P 3.05 | Y 2.34 | K 3 | T 1.72 | H 1.8 | F 2.07 | W 1.54 | S 1.98
F13: G 2.98 | Q 4.29 | H 3.07 | K 2.76 | A 1.57 | E 2.6 | I 1.77 | N 3.41 | L 2.16 | V 1.63 | S 3.56 | Y 4.13 | M 1.32 | P 3.61 | D 3.37 | R 2.03
V19: I 2.27 | T 3.34 | W 2.1 | L 1.59 | Y 1.86 | H 4.02 | R 2.66 | M 2.52 | F 1.99 | S 3.99 | D 2.65 | N 2.33 | K 4.72 | G 2.85 | C 1.65 | Q 3.09 | P 2.51 | A 2.58
L10: N 4.61 | P 2.75 | C 2.07 | W 2.58 | A 2.62 | R 2.83 | I 2.42 | M 3.58 | S 2.77 | D 3.28 | G 4.36 | V 1.23 | H 3.23 | T 3.06 | K 4 | Y 2.13 | Q 2.94 | F 2.27
L21: H 2.98 | Y 1.91 | Q 3.29 | W 2.35 | K 1.88 | M 2.32 | F 3.04 | N 2.64 | P 2.86 | R 3.21 | T 2.68 | G 3.19 | I 2.17 | S 3.5 | C 2.43 | V 2.12 | D 3.39
F16: E 3.14 | G 3.06 | D 1.64 | Y 3.35 | I 2.25 | T 2.77 | R 1.32 | W 2.38 | H 3.79 | V 2.07 | L 2.91 | P 2.96 | K 2.35 | S 2.55 | A 2.14 | M 2.17
